B1: talin-1 head domain (THD1) [not stated] / ATTO 488-labelled β3-CT (488–β3-CT) [modified: ATTO 488 at the N terminus; ATTO 488 at the N terminus] [not stated] (parent)
chain 1: MVALSLKISIGNVVKTMQFEPSTMVYDACRMIRERIPEALAGPPNDFGLFLSDDDPKKGIWLEAGKALDYYMLRNGDTMEYRKKQRPLKIRMLDGTVKTIMVDDSKTVTDMLMTICARIGITNHDEYSLVRELMEEKKDEGTGTLRKDKTLLRDEKKMEKLKQKLHTDDELNWLDHGRTLREQGVEEHETLLLRRKFFYSDQNVDSRDPVQLNLLYVQARDDILNGSHPVSFDKACEFAGFQCQIQFGPHNEQKHKAGFLDLKDFLPKEYVKQKGERKIFQAHKNCGQMSEIEAKVRYVKLARSLKTYGVSFFLVKEKMKGKNKLVPRLLGITKECVMRVDEKTKEVIQEWSLTNIKRWAASPKSFTLDFGDYQDGYYSVQTTEGEQIAQLIAGYIDIILKKKKS
chain 2: KLLITIHDRKEFAKFEEERARAKWDTANNPLYKEATSTFTNITYRGT

Variants of: B1
Assay: MST
Conditions: with ATTO 488-labelled β3-CT (488–β3-CT) [modified: ATTO 488 at the N terminus, 30-40 µM KIND2, n = 2, read off a plot

Compared with chain 1 L400A, chain 1 K402A K403A is lower in screen value: 1.1 for the first, 0.7 for the second.

Compared with chain 1 I396A, chain 1 K403E is lower in screen value: 1 for the first, 0.57 for the second.

First: chain 1 K403A
Second: chain 1 I399A
The screen value of the first is lower: 0.5 for the first, 0.93 for the second.

Compared with chain 1 K401A, chain 1 Y395A is higher in screen value: 0.55 for the first, 0.68 for the second.

Going from chain 1 K402A to chain 1 I398A, the screen value rises from 0.45 to 0.65.

Work on chain 1 K404A yielded a screen value of 0.75.
